This is an account of results in article PMC11039992.

First the molecules themselves.
B1: MAC-RBM41-WT [human] / DEAH-box RNA helicase DHX8 [human (endogenous in Flp-In T-REx 293)] (parent)
chain 1: MKRVNSCVKSDEHVLEELETEGERQLKSLLQHQLDTSVSIEECMSKKESFAPGTMYKPFGKEAAGTMTLSQFQTLHEKDQETASLRELGLNETEILIWKSHVSGEKKTKLRATPEAIQNRLQDIEERISERQRILCLPQRFAKSKQLTRREMEIEKSLFQGADRHSFLKALYYQDEPQKKNKGDPMNNLESFYQEMIMKKRLEEFQLMRGEPFASHSLVSATSVGDSGTAESPSLLQDKGKQAAQGKGPSLHVANVIDFSPEQCWTGPKKLTQPIEFVPEDEIQRNRLSEEEIRKIPMFSSYNPGEPNKVLYLKNLSPRVTERDLVSLFARFQEKKGPPIQFRMMTGRMRGQAFITFPNKEIAWQALHLVNGYKLHGKILVIEFGKNKKQRSNLQATSLISCATGSTTEISGS
chain 2: MAVAVAMAGALIGSEPGPAEELAKLEYLSLVSKVCTELDNHLGINDKDLAEFVISLAEKNTTFDTFKASLVKNGAEFTDSLISNLLRLIQTMRPPAKPSTSKDPVVKPKTEKEKLKELFPVLCQPDNPSVRTMLDEDDVKVAVDVLKELEALMPSAAGQEKQRDAEHRDRTKKKKRSRSRDRNRDRDRDRERNRDRDHKRRHRSRSRSRSRTRERNKVKSRYRSRSRSQSPPKDRKDRDKYGERNLDRWRDKHVDRPPPEEPTIGDIYNGKVTSIMQFGCFVQLEGLRKRWEGLVHISELRREGRVANVADVVSKGQRVKVKVLSFTGTKTSLSMKDVDQETGEDLNPNRRRNLVGETNEETSMRNPDRPTHLSLVSAPEVEDDSLERKRLTRISDPEKWEIKQMIAANVLSKEEFPDFDEETGILPKVDDEEDEDLEIELVEEEPPFLRGHTKQSMDMSPIKIVKNPDGSLSQAAMMQSALAKERRELKQAQREAEMDSIPMGLNKHWVDPLPDAEGRQIAANMRGIGMMPNDIPEWKKHAFGGNKASYGKKTQMSILEQRESLPIYKLKEQLVQAVHDNQILIVIGETGSGKTTQITQYLAEAGYTSRGKIGCTQPRRVAAMSVAKRVSEEFGCCLGQEVGYTIRFEDCTSPETVIKYMTDGMLLRECLIDPDLTQYAIIMLDEAHERTIHTDVLFGLLKKTVQKRQDMKLIVTSATLDAVKFSQYFYEAPIFTIPGRTYPVEILYTKEPETDYLDASLITVMQIHLTEPPGDILVFLTGQEEIDTACEILYERMKSLGPDVPELIILPVYSALPSEMQTRIFDPAPPGSRKVVIATNIAETSLTIDGIYYVVDPGFVKQKVYNSKTGIDQLVVTPISQAQAKQRAGRAGRTGPGKCYRLYTERAYRDEMLTTNVPEIQRTNLASTVLSLKAMGINDLLSFDFMDAPPMETLITAMEQLYTLGALDDEGLLTRLGRRMAEFPLEPMLCKMLIMSVHLGCSEEMLTIVSMLSVQNVFYRPKDKQALADQKKAKFHQTEGDHLTLLAVYNSWKNNKFSNPWCYENFIQARSLRRAQDIRKQMLGIMDRHKLDVVSCGKSTVRVQKAICSGFFRNAAKKDPQEGYRTLIDQQVVYIHPSSALFNRQPEWVVYHELVLTTKEYMREVTTIDPRWLVEFAPAFFKVSDPTKLSKQKKQQRLEPLYNRYEEPNAWRISRAFRRR

In this test the parent is B1. Briefly: BioID proximity labeling (mass spectrometry spectral counts). Conditions: with DEAH-box RNA helicase DHX8 [human (endogenous in Flp-In T-REx 293)]; MAC-tagged protein expression induced with tetracycline in the presence of biotin for 24 h; three independent replicates; parent: 23; read off a plot.
chain 1 Y312A: the response (spectral count) is 19.

chain 1 Q352A: the response (spectral count) came to 23.

As for chain 1 F354A, the response (spectral count) is 19.

Take chain 1 Y312A F354A: the response (spectral count) worked out at 23.
